Experimental data as given in patent US20100041597A1 (published 2010).

Key:
[1] = biological target: T1, PKC-ζ (purified isoform) (Homo sapiens (Human), UniProt Q05513 1-592); experiment: competitive binding assay on purified isoforms: PRE 4 at 20X against the fluorescent anti-PKC-zeta antibody
T1 construct: also called PKC-zeta; PKCzeta
T1 sequence: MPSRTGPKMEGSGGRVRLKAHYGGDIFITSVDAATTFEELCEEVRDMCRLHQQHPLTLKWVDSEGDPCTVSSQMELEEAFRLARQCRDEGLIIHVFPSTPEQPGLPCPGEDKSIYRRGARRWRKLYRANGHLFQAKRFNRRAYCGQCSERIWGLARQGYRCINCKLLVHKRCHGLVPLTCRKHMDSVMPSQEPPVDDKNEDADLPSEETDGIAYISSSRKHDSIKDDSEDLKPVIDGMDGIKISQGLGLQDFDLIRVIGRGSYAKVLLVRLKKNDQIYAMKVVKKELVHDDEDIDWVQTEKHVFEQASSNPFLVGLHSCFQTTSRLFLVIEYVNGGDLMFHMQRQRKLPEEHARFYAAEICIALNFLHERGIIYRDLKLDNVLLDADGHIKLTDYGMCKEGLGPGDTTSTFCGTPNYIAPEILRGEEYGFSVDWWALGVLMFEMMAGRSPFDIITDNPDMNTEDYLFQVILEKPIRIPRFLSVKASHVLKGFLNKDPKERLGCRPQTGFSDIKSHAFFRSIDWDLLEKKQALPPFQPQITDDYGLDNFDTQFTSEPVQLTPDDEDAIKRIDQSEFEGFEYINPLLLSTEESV

[2] = biological target: T2, PKC-ζ (endogenous, human cell extracts) (human, UniProt Q05513 1-592); experiment: Western-blot competition on cell extracts against the anti-PKC-ζ primary antibody; band densitometry
T2 construct: also called PKC-zeta
T2 sequence (looked up): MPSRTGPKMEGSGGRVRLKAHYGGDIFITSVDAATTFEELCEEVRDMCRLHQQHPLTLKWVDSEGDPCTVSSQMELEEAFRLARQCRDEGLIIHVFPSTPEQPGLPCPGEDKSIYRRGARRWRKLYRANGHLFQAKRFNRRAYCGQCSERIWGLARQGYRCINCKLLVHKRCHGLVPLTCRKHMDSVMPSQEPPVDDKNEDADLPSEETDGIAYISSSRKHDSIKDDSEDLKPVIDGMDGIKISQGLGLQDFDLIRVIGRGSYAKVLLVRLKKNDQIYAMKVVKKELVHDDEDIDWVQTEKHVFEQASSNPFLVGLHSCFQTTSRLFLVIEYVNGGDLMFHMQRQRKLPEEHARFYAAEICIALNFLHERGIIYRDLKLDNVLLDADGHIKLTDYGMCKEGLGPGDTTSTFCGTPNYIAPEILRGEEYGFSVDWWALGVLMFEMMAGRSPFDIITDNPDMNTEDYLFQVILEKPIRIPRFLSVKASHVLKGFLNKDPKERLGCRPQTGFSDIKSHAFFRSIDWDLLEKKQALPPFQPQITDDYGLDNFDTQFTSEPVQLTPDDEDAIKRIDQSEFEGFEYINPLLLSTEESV

[3] = biological target: T3, PKC-ε (purified isoform) (Homo sapiens (Human), UniProt Q02156 1-737); experiment: summary grade, purified isoform ELISA
T3 construct: also called PKC-epsilon; PKCepsilon
T3 sequence: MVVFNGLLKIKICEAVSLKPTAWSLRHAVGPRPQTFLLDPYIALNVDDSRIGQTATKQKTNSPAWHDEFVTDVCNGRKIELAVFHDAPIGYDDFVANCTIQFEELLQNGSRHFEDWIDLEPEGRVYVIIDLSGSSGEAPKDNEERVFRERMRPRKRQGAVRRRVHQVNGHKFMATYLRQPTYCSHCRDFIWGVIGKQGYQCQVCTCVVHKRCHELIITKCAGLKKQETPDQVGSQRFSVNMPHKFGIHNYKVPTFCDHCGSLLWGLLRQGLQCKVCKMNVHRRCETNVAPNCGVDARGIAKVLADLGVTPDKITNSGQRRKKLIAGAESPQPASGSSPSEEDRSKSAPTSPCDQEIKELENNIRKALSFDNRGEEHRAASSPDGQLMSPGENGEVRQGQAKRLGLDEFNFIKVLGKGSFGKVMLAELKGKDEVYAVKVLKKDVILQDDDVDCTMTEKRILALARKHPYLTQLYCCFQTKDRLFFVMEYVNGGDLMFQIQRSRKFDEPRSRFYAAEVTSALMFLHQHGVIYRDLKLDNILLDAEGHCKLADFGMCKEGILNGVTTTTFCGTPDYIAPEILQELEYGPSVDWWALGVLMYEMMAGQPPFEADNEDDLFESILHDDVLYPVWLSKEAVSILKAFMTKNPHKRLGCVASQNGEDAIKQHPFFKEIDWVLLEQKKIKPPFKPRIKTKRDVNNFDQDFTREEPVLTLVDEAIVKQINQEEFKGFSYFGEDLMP

[4] = biological target: T4, PKC-ι (endogenous, human cell extracts) (human, UniProt P41743 2-596); experiment: Western-blot competition on cell extracts against the anti-PKC-ι primary antibody; band densitometry
T4 construct: also called PKC-iota
T4 sequence (looked up): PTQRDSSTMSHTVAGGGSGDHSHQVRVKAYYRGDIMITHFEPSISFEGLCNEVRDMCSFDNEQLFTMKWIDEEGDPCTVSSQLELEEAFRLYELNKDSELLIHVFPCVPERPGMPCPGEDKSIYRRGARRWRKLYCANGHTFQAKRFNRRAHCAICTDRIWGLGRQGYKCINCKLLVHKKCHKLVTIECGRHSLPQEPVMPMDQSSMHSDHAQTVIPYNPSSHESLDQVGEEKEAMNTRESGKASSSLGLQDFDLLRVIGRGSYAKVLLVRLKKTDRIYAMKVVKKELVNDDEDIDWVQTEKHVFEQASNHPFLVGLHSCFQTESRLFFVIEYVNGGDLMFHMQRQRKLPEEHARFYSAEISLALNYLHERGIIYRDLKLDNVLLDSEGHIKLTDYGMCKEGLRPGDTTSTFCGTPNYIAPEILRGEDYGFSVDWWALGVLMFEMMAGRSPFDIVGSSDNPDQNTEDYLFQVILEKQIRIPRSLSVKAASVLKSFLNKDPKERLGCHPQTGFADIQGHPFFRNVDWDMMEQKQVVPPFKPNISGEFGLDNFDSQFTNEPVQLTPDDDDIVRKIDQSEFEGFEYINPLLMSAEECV

[5] = biological target: T5, PKC-βII (purified isoform) (Homo sapiens (Human), UniProt P05771 2-621); experiment: summary grade, purified isoform ELISA
T5 construct: also called PKC-beta II
T5 sequence (P05771 other isoform, or with tags, fused parts or gaps limits assumed): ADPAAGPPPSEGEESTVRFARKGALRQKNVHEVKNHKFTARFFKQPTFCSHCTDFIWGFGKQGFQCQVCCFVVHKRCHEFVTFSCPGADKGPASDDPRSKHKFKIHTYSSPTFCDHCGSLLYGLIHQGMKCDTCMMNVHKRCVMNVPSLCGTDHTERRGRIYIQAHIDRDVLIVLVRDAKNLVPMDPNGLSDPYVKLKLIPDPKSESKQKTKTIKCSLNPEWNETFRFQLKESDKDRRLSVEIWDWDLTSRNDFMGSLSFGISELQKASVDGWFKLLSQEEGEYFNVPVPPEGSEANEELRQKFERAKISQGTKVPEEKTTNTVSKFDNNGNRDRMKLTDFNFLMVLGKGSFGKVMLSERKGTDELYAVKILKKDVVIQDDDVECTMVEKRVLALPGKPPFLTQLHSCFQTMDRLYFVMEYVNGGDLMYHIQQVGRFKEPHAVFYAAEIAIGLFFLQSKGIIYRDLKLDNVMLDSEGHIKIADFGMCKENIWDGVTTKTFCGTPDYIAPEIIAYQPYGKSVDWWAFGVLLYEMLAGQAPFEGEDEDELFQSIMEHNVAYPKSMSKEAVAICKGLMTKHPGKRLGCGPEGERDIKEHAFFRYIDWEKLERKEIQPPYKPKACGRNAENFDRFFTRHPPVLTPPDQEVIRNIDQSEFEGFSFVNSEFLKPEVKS

[6] = biological target: T6, PKC-ε (endogenous, human cell extracts) (human, UniProt Q02156 1-737); experiment: Western-blot competition on cell extracts against the anti-PKC-ε primary antibody; band densitometry
T6 construct: Two bands on the blot, said to be alternate splicing variants; also called PKC-epsilon; PKC-ε Band 1
T6 sequence (looked up): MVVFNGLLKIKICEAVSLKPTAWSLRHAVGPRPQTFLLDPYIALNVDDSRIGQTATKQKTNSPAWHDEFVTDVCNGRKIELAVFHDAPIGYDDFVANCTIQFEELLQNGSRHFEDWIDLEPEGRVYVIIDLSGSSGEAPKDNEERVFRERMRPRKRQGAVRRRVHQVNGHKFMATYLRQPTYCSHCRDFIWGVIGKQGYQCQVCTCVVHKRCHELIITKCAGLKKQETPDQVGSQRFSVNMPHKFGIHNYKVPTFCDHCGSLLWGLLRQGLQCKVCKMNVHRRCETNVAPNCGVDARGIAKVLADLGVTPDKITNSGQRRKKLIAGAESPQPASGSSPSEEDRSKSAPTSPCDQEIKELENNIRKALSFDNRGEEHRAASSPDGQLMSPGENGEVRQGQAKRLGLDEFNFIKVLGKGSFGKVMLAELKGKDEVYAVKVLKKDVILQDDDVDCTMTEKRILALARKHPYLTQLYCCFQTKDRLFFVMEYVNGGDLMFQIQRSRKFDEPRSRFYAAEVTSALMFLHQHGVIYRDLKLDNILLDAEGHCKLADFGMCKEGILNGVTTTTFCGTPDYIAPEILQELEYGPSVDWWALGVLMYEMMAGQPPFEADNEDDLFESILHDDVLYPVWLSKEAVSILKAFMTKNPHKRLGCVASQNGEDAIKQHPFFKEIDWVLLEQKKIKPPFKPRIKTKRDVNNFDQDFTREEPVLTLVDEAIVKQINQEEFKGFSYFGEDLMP
Method: Binding efficiency and specificity of the peptides PRE 2, 3, 4, 5, 6, 7, 8, 9, 10, 11, 12 and 13 (see Table 3) was also tested using cytoplasmic extracts from different cell lines expressing appropriate PKC isoforms as described for Example 1. Briefly, the protein cytoplasmic extracts were separated by electrophoresis and transferred onto nitrocellulose membranes by standard Western blotting procedures. The bands on the Western blots were detected with matching primary antibodies and alkaline phosphatase conjugated secondary antibody. The bands were then scanned and the relative density measurements obtained.
This procedure to assess the binding characteristics of the PREs is based on competition binding of the PRE with the primary anti-isoform PKC specific antibodies. The lower the measured band density, the greater the binding of the PRE to the PKC isoform. The PREs were added at 10 and 20 times (10×, 20×) the primary antibody concentration, according to classical competition between antigenic peptide and primary antibody. The following cell lines (obtained from the ATCC) were used: H661—NCI human lung carcinoma NSCLC; MDAMB231—human highly invasive breast cancer cell line from pleural effusion; LS180—human colon adenocarcinoma; LnCAP—human prostate adenocarcinoma; CCD16Lu—human lung fibroblasts; Du145—human prostate carcinoma brain metastasis, and T24—human bladder carcinoma.

B1: PRE 4 (peptide)
peptide: Ac-KDAQNLIGISI-NH2
notes: Synthetic peptide; also called peptide PRE 4
Q: Does B1 bind [1]?
A: no binding (tested: 20X)

B2: PRE 11 (peptide)
peptide: Ac-RDAQNLIGISI-NH2
notes: Synthetic peptide; also called peptide PRE 11
Q: Does B2 bind [2]?
A: no binding (tested: 20X the primary antibody concentration)

B3: PRE 12 (peptide)
peptide: Ac-KDAQNLI-NH2
notes: Synthetic peptide; also called peptide PRE 12; Ac-KDAQNLI-NH2
Q: Does B3 bind [3]?
A: no binding (tested: 200 µM)

Q: Does B3 bind [4]?
A: no binding (tested: 20X the primary antibody concentration)

B4: PRE 13 (peptide)
peptide: Ac-RDAQNLI-NH2
notes: Synthetic peptide; also called peptide PRE 13; Ac-RDAQNLI-NH2
Q: Does B4 bind [5]?
A: no binding (tested: 200 µM)

Q: Does B4 bind [3]?
A: no binding (tested: 200 µM)

Q: Does B4 bind [6]?
A: no binding (tested: 20X the primary antibody concentration)

B5: PRE 6 (peptide)
peptide: Ac-KDANQLIGISI-NH2
notes: Synthetic peptide; also called peptide PRE 6
Q: Does B5 bind [5]?
A: no binding (tested: 200 µM)
